This is an account of results in paper PMC11271267.

The assay addresses MetCb purified individually (Aminobacter sp. strain NyZ550). As to the kind of experiment: not stated; purified MetCb alone in solution; experiment not described.

By stoichiometry N is commonly meant a count of units in the complex or per binding partner.

The substance “MetCb purified individually (natural protein)” came in with a stoichiometry N of 6.
